Laboratory results from US20040146512A1 (RINAT NEUROSCIENCE, published 2004).

Experiments:
Aβ1-40 peptide = biological target: T1, Aβ1-40 peptide; test: Affinity Kd of Table 2; method and format not stated in Example 1
T1 construct: Synthetic peptide, also the immunogen; also called Aβ peptide; β-amyloid peptide 1-40

Aβ1-42 peptide [1] = biological target: T2, Aβ1-42 peptide; test: ELISA: peptide immobilized on plate + Ab + GAMIgG(Fc)HRP, absorbance 490 nm
T2 construct: also called 1-42 (WT); β-amyloid peptide 1-42

Aβ1-43 peptide [2] = biological target: T3, Aβ1-43 peptide; test: as above
T3 construct: also called 1-43 (WT); β-amyloid peptide 1-43

[3] = biological target: T4, beta amyloid precursor protein (βAPP) (Homo sapiens, UniProt P05067 18-770); test: ELISA: β-APP (gD) immobilized on plate + Ab + GAMIgG(Fc)HRP, absorbance 490 nm; antibody concentration not given
T4 construct: also called amyloid beta (A4) precursor protein

[4] = biological target: T5, Wild-type Aβ1-40 expressed as GST fusion protein (Homo sapiens (Human), UniProt P05067 672-711); test: ELISA: GST fusion protein immobilized 0.25 µg per well, antibody at 2 nM, biotin goat anti-mouse (H+L) + streptavidin-HRP, OD450
T5 construct: Expressed in E. coli; also called Aβ1-40 (WT) GST fusion; WT Aβ1-40; not shown: Glutathione-S-Transferase (GST) fusion partner, Amersham Pharmacia Biotech system

[5] = biological target: T6, Aβ1-41 expressed as GST fusion protein (Homo sapiens (Human), UniProt P05067 672-712); test: as above
T6 construct: also called 1-41 (WT); not shown: Glutathione-S-Transferase (GST) fusion partner, Amersham Pharmacia Biotech system

[6] = biological target: T7, Aβ1-40 variant V36A expressed as GST fusion protein (Homo sapiens (Human), UniProt P05067 672-711, Expressed as a GST fusion protein; the GST part is left out.); test: as above
T7 construct: also called V36A (1-40); not shown: GST fusion partner and its linker

[7] = biological target: T8, Aβ1-40 variant V39A expressed as GST fusion protein (Homo sapiens (Human), UniProt P05067 672-711, Expressed as a GST fusion protein; the GST part is left out.); test: as above
T8 construct: also called V39A (1-40); not shown: GST fusion partner and its linker

[8] = biological target: T9, Aβ1-40 variant V40A expressed as GST fusion protein (Homo sapiens (Human), UniProt P05067 672-710, Expressed as a GST fusion protein; the GST part is left out.); test: as above
T9 construct: also called V40A (1-40); not shown: GST fusion partner and its linker

Aβ1-16 peptide [9] = biological target: T10, Aβ1-16 peptide; test: SPR (Biacore 3000) competition: antibody 100 nM over biotin-Aβ1-40 on a streptavidin chip, with soluble peptide at 1000 nM; % of maximal binding
T10 construct: Soluble fragment from American Peptide Company
T10 peptide: DAEFRHDSGYEVHHQK

Aβ1-28 peptide [10] = biological target: T11, Aβ1-28 peptide; test: as above
T11 construct: Soluble fragment from American Peptide Company

Aβ1-38 peptide [11] = biological target: T12, Aβ1-38 peptide; test: as above
T12 construct: Soluble fragment from American Peptide Company

Aβ1-42 peptide [12] = biological target: T2, Aβ1-42 peptide; test: ELISA: peptide immobilized on plate + Ab + GAMIgG(Fc)HRP, absorbance 490 nm; antibody concentration not given
Aβ1-43 peptide [13] = biological target: T3, Aβ1-43 peptide; test: as above
[14] = biological target: T6, Aβ1-41 expressed as GST fusion protein; test: ELISA: GST fusion protein immobilized 0.25 µg per well, biotin goat anti-mouse (H+L) + streptavidin-HRP, OD450
Aβ1-16 peptide [15] = biological target: T10, Aβ1-16 peptide; test: SPR (Biacore 3000) competition: antibody over biotin-Aβ1-40 on a streptavidin chip, with soluble peptide; % of maximal binding
Aβ1-28 peptide [16] = biological target: T11, Aβ1-28 peptide; test: as above
Aβ1-38 peptide [17] = biological target: T12, Aβ1-38 peptide; test: as above
[18] = biological target: T13, Aβ1-40 polypeptide coupled to biotin, immobilized on a streptavidin-coated chip (coupled to biotin (position not given)); test: SPR (BIAcore 3000), Fab over biotin-Aβ1-40 on SA chip, 'Steady-State' method
T13 construct: From Global Peptide Services; Used in the SPR assays; also called biotinylated Aβ peptide 1-40; immobilized Aβ1-40

T9 sequence (P05067 672-711 V711A limits assumed): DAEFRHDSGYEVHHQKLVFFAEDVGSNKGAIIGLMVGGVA
T7 sequence (P05067 672-711 V707A limits assumed): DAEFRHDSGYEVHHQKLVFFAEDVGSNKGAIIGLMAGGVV
T6 sequence (P05067 672-712): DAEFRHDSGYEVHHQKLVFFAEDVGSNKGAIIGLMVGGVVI
T8 sequence (P05067 672-711 V710A limits assumed): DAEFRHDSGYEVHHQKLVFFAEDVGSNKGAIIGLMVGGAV
T4 sequence (P05067 other isoform, or with tags, fused parts or gaps limits assumed): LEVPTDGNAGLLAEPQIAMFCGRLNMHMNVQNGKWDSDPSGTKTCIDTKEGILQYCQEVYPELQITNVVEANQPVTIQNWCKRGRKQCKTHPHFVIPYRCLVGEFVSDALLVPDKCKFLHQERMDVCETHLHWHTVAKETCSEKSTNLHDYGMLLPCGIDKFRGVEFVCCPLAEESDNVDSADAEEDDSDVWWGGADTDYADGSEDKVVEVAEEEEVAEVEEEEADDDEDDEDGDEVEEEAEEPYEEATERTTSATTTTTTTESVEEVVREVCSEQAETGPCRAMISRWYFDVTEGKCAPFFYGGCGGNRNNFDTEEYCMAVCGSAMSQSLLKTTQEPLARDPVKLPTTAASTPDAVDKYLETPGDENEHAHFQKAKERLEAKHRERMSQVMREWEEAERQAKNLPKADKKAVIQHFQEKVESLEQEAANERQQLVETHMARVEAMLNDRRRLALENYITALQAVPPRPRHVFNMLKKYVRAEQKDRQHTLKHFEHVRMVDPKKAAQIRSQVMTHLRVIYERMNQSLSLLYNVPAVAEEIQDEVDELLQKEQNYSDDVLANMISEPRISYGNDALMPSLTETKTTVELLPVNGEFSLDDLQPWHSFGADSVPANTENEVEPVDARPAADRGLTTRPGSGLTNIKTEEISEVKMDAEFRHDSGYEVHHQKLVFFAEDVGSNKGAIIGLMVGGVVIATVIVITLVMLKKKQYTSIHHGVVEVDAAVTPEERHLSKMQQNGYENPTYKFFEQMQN

B1: monoclonal antibody 2324 (produced by hybridoma 10B10.2E6) (antibody, V domains shown)
VH: VTLKESGPGILKPSQTLSLTCSFSGFSLSTSGMGVGWIRQSSGKGLEWLAHIWWDDDKYYNPSLKSQLTISKDTSRNQVFLKITSVDTADTATYYCARRGVRHRDYFDYWGQGTTLTVSS
VL: DVLMTQTPLSLPVSLGDQASISCRSSQSIVHSNGNTYLEWYLQKPGQSPKLLIYKVSNRFSGVPDRFSGSGSGTDFTLKISRVEAEDLGVYYCFQGSRVPLTFGAGTKLELKR
Aβ1-40 peptide
  Kd: 0.9 nM
Aβ1-42 peptide [1]
  binding result: binds
Aβ1-43 peptide [2]
  binding result: binds
[3]
  binding result: no binding
[4]
  binding result: binds
[5]
  binding result: binds
[6]
  binding result: binds
[7]
  binding result: binds
[8]
  binding result: binds
Aβ1-16 peptide [9]
  binding result: binds
Aβ1-28 peptide [10]
  binding result: binds
Aβ1-38 peptide [11]
  binding result: binds

B2: monoclonal antibody 2286 (produced by hybridoma 8A1.2A1) (antibody, V domains shown)
VH: EVKLLESGGGLVQPGGSLKLSCAASGFDFSRYWMNWVRQAPGKGLEWIGEINPDSSTINYTPSLKDKFIISRDNAKNTLYLQMSKVRSEDTALYYCARQMGYWGQGTTLTVSS
VL: DIQMTQTTSSLSASLGDRVTISCSASQGISNYLNWFQQKPDGTVKLLIYYTSSLHSGVPSRFSGSGSGTDYSLTISNLEPEDIATYYCQQYRKLPYTFGGGTKLEIKR
Aβ1-40 peptide
  Kd: 2.7 nM
Aβ1-42 peptide [12]
  binding result: no binding
Aβ1-43 peptide [13]
  binding result: no binding
[14]
  binding result: no binding (tested: 2 nM)
Aβ1-16 peptide [15]
  binding result: no binding
Aβ1-28 peptide [16]
  binding result: no binding
Aβ1-38 peptide [17]
  binding result: no binding
[6]
  binding result: binds
[7]
  binding result: binds
[8]
  binding result: binds

B3: Mouse 2286 Fab (Fab, V domains shown)
VH: B2 VH
VL: B2 VL
[18]
  Kd: 76 nM
